# Experimental data: the DeepSol protein solubility set
# Assay: soluble on expression in E. coli; label from the status in PepcDB or PDB records
row,Sequence,soluble on expression in E. coli
1,MGSDKIHHHHHHMKRVKEQIKYLALLAICLLSGCSDFLDSYNPSAVTDDFYNTKEGQQKLLTDINARYRNVFNTGELQYYGTDIYMAISEEPAERMFNGYDKTFNSTAPIVGDYWKVLYKIVQESNILLNRCTPDIAGSDYTSLTAQARFFRAMAYYYLVETFGPVPLLTEENTSVIQQAERTGEQAIYTFIITELNDIKDKLDMTTISAGKVTNAAVIHFLGKMYLTRAYKSFAETDDFSNAATTFDLLVENPASGYALQENYAALFDENNQANSEVIWAIQYGLDKNYRGDGNPQQAQFGFNIVALEPDLFIKNQNDYSSVSRKYWVNPKAHELYTDPEADTRYDATFKREYYINNPDNADYGKLGIYFPRWNDKSGMSNNAKRFYPFKQDDEYVWYPQSTALPVLETASDRMPMVRKFSDTKIQWGEGGSREDVIFRLGDTYLLCAEAYLGAGNKKLALERINSIRKRAAKDATAYEAMKLTDLDINVIMDERARELMGEHDRWFDLKRTQTLLTRVPAYNPFVVKYDNLNKNHLVRPIPQDERNKVDGLSQNEGY,not soluble
2,MSLKNNSEVFNVLHFSDIHIQLRYNVGAEANCTNLPCGAPDSYNKQLLPSSYNFSSYYQHFSPNVAKMEFSFYPDAHYDENSQYIKGDYYDFPLYRGWNFKNAPATSFGGYLTDSPAVLMNSSLISMAKMHKEKNFEFAIFTGDVVDHLLLSCTPEYTKEEEVKSFKAMKFFFNNLTVLPALGNHETGEYGQLSPIAYDFNGSYSWNQDEMVDLWINNEWFPAKDRYDLKSHYAGFSYVTNRGLKVIGLNSNAYYQKNLWSYIDLSTNPDLFGQWEFLVNELIESEEKGQRVWIMAHIPTTDYDTLPLQSRIFGKIVERFSPYTIANIFFAHTHMDQTHILYSTNSSKEAEDIINMSWVMQSVTPLANYNPSWRYYEVENESFNIINSFNYMTKLNDTEGHHHHHH,soluble
3,MSYYHHHHHHDYDIPTTGNLYFQGAMVAISFRPTADLVDDIGPDVRSCDLQFRQFGGRSQFAGPISTVRCFQDNALLKSVLSQPSAGGVLVIDGAGSLHTALVGDVIAELARSTGWTGLIVHGAVRDAAALRGIDIGIKALGTNPRKSTKTGAGERDVEITLGGVTFVPGDIAYSDDDGIIVV,soluble
4,MGSDKIHHHHHHMTQFDVLTIGNAIVDIISRCEDQFLEENGIVKGAMNLIDAERATRLYSLMGPAIEASGGSAGNTAAGIASFGGKAAYFGKVAEDELGEIFAHDIRAQGVHYQTMAKGQHPPTARCMIFVTEDGERSMNTYLGACVEFGPEDVEPEVVKQAKVTYFEGYLWDPPRAKQAIVDCARIAHEHGREMSMTLSDSFCVHRYRAEFLDLMRSGTVDIVFANRQEALALYETEDFDAALDQIAKDCKLAAVTMSEEGAMIIRGSERIHVPATTIAELVDTTGAGDLFASGFLYGYTQGRTLEECGKLGCLAAGLVIQQMGPRPLASLQEAAAEAGLI,not soluble
5,MVSGYTQSEIDSIAGWLRAGDSASKAAAKLSTMRGRAVSRNAIIGIVHRNAKLAAIGFGRAKSSPASEGSSTYTPEEIKLVADCLKAKRNYVQIAQRLALKSGRIISRFGVKSLIRRTPELNEIGFRGKKGRPSDKKKAAPGQLPGRLFIAATADIDRDPSAFDYLTRPAVRALASQPHFAAMRFVDCLPARCRAPLSYDLEERPGPDMLCCGHLAMPSRSYCAYHEIRLTARKAEFIAEAALEHHHHHH,soluble
6,MIRQTPLEKRYDKLGPHIVTALKKRYFDAYYCKTRNEALQQILDLIPQNHVVSWGGSETLKEMGVQTAVREKGFKVIDRDLAKTPEERTEIMRQALLCDTFLMSSNAISEDGQLFNIDGNGNRVAAMIFGPKNVIVVAGMNKIVKNIDDAIQRTRTVASPAVVQRFQDVNTPCYINGSCIDCTSPESICAYMVTTRISRPAKKIKVILVGENLGLLEHHHHHH,soluble
7,MSLVIGYMESNKNNSKWKDILMDGEILQIENIFNGSHNKKNNGLIIFKIKDKLGNVNKLTFVSKSADMSIQVEKAERLIKKGSYYRHFKGNYYKVLYIAENSEDKEKVVVYQAMYGEKKVYVRPFKMFISKVDHCKYPEIEQEYRFMSISELENQFGTSVVASWNMQNIYVDHTIEGHHHHHH,not soluble
8,MNYAIQSETRHYPYLEVSARKRALKHSLIRVEQGLLLFRLGKHEYAVEKGQTLWIPFDCLCGLTFFPDTHITRVDFSLRLNVRLPHNAGFIKSSELALAVLHRLQNCERHHPTFTHLTQLLMLELTTCDPKLKMSPLTQAITEWQPQAHASVSKEQHVVLLVREALKRSQSGAQTHSIIEELFSGNAEHYHQLCTLVLGRTL,not soluble
9,AYSELQMLSPSERQCVETVVNMGYSYECVLRAMKKKGENIEQILDYLFAH,soluble
10,DDDGEHGGRRAALVVTDPLTRTECSACHMAYPAALLPARSWTALMADLPNHFGEDASLDEASRGQIESYLVANAADSSGAGRALRGLVQTDTPLRISELPWFKRKHADEVSPRMLEKARSMSNCAACHTGAERGLFDDD,soluble
11,KERIIGDLSQPVAVRVRTLIQQMTLAEKVAQLVSESDSIPRLNLPAYNYWNECLHGVARAGEVTVFPQAINLASTWDTVLVKRVASAISTEARLKYLEIGKGLTYWSPTINMARDPRWGRNEETYGEDPHLTSRLGVAFVKGLQGDHPTYLKTVATIKHFVANNEENNRFSSSSQIPTKQLYEYYFPAYEACVKEANAQSVMTAYNAFNGVPPSGSHWLLDDVLRKEWGFDGFVVSDCGAIGVMNWQHRVVNSLEEAAALGVNSGCDLECGTTYKEKLVQAVEQGLISEAAIDRALTRVLTARFKLGEFDPMELVPYNHYDKKLLA,not soluble
12,MDIPQDSYDLVVVGGGTSGVFAAISAARRGLRVALVEASGMLGGTLTQVTLGGICGAWTGTAHTQVVHGLFDEFVHAMRKAQACDGLYSYGHVTALPYEPVKVRYLLDQLLPPNVTTFFHSRLFAVDMEGERIARVHLAGVEGPFSLAARAYVDATGNASLAGLCATPLRRGENGTVQAASSMFRVIGADVDPRVRDVRTEIRLAIEKHNASGQAEAFKRSAVAVYVHPDQRLLHFNATRVYFESTADDALAAALDMSRVETEARKEAFRLVELLKREVDGFANIEIVDLGSSVGVRDSRNIVNDHPLTEAMVRDGDKPANSVAYSAWPIEFHGSNTQTHWEPLEGDRYYGIPYESCLPQGIQNALVIGRAISSTPLAQASCRVTAPCIQMGESAGIAAHELVASSSRTAFSELASMKFILEHHHHHH,not soluble
13,FVDPLCPECWSLEPVIKKLKIRYGRFFTLRIIASASLTALNKKRKKHLLAEAWEKIASRSGMSCDGNVWFEQDQPLSSPYMAALAFKAAELQGRKAGMQFLRNMQESLFVSKKNITDENVLLEIAENTSLDLEEFKKDLHSQSAVKALQCDMKIAAEMDVSVNPTLTFFNTQHEDEGLKVPGSYSYDVYEEILFEMLGDE,not soluble
14,MTFNQEQDYWAGYKANERALIIQTWSGFGRYAPDHLYPPHILPLDTDNETLGTTVLQALANSRTFVYDSPEDQDFFDTEKIRQRYEDWVAKLCGNLGYKTRRALFKNMMSVDIWLHNGCLKISPSRHVKLEAWDAIDADDVILSLDNSPEEIGAGLKLALSRCR,soluble
15,MELKSTRHTKYLCNYHFVWIPKHRRNTLVNEIAEYTKEVLKSIAEELGCEIIALEVMPDHIHLFVNCPPRYAPSYLANYFKGKSARLILKKFPQLNKGKLWTRSYFVATAGNVSSEVIKKYIEEQWRKEGEEE,soluble
16,MLKIGIVGCGAIGNFITKKVLDGTIKNAKISAVYDRNFDKAKTLSERTGAKICSSIDDLVKEDLDLVVEAASIKAVEEIAEKSLINNKDVLIMSVGALADKKLFLKLRDLAKTVGRKIYLPSGAIGGLDAIKALRLGEIEEVVLKTTKPVAALEDALKNLGYKPEDIKNPVIVFEGDVFKAIKEFPANINVSVTLSIAAEFPAKVVIVADPNAKLNKHELFVKSSIGTLRVCIENVPFEENPRTSALAAYSAVRLIRDLAEPVKVGT,soluble
17,MMKLKFYLVYLWYKVLLKLGIKTDEIYYIGGSEALPPPLTKEEEEVLLNKLPKGDQAARSLLIERNLRLVVYIARKFENTGINIEDLISIGTIGLIKAVNTFNPEKKIKLATYASRCIENEILMHLRRNNKNRSEVSFDEPLNIDWDGNELLLSDVLGTDDDIITKDLEATVDRHLLMKALHQLNDREKQIMELRFGLAGGEEKTQKDVADMLGISQSYISRLEKRIIKRLRKEFNKMV,not soluble
18,MFFIGIFGIENKQKEVKQLENIYCKTCSTRTMGTLIKSYEYFHIFFIPIFRWNEKYYVMCKRCNSIYEISKEKGKAIENGEINEVNLEDMTLIQEGQVYGKRAVKKVCPNCGKTVDGDYNYCPYCGSEILEHHHHHH,not soluble
19,MTTYPADTPIITQPPSPDSPSSSNGSSTSLSENLNNNSVSNQIEYVNQNNNSDNFTVGLGFLGASGNYGNYSSHLNNNLSISQNQSVSLNSSSSSVGAGLTPGNGSVGSTSNSSSAASSIQNIGLNSSLINSNTNNLSSSSHSMSGSNNNNSNNNVVNNYLTVYGNNGSSGGGSGSGGGSGPGADSPRIHCCRPCCPYSHHRRLCDPCYCSNRPESHRDSSSSEEVNDAQSDENTYFQFDFIGVDGHHARRVLPPSWRILRNSKAESSDESSLSDAVQTVDLPKIPQKKIRCVYSIDAEEIEGKKCMLECIRSSCLPRYVECHRRRRCSRKQRCHTTTQPPSPTTESLPTSTTTYEMNTTSLETSTTDISTITSTEEPISTTVKTHEQSSTSGMEFSTMSTTYEPITTTLETSTTDISIITSTEEPDTSTTTESNEQSSTTGMEFSTMSTTYEPITTSLETSTTDMLTNTSTEEPDISTTIEPNAQSTTYEMESSTVSVTYEPETTSLETSSTKVSSTTATGEPASTTMEANEHSSTFETESSTVPATNEPITTSFIPSTTDLSIITSTEEAKISTTMETDELSTTTESSYSTTQFTTFKIPTSSFSTLPMEGTSTKEQTTLSTEETSSATTATIFEKLSTTLFFEETQVTSTSDFTSSPRSIETTRVIEFDTSTELQTTSKTSTTTEDTTTVGTTTEMEMRRFWRLFG,not soluble
20,MSLFKEERTMTNYTVDTLNLGKFITESGEVIDNLRLRYEHVGYHGQPLVVVCHALTGNHLTYGTDDYPGWWREIIDGGYIPIHDYQFLTFDVIGSPFGSSSPLNDPHFPKKLTLRDIVRANERGIQALGYDKINILIGGSLGGMQAMELLYNQQFEVDKAIILAATSRTSSYSRAFNEIARQAIHLGGKEGLSIARQLGFLTYRSSKSYDERFTPDEVVAYQQHQGNKFKEHFDLNCYLTLLDVLDSHNIDRGRTDVTHIFKNLETKVLTMGFIDDLLYPDDQVRALGERFKYHRHFFVPDNVGHDGFLLNFSTWAPNLYHFLNLKHFKRKEGHHHHHH,soluble
21,MAINLELPRKLQAIIVKTHQGAAEMMRPIARKYDLKEHAYPVELDTLINLFEGAAESFNFAGAHSLRDEDEGKDENHNGANMAAVVQTMEASWGDVAMMLSLPYQGLGNAAISAVATDEQLERLGKVWAAMAITEPEFGSDSAAVSTTATLDGDEYVINGEKIFVTAGSRATHIVVWATLDKSLGRPAIKSFIVPREHPGVTVERLEHKLGIKGSDTAVIRFDNARIPKGNLLGNPEIEVGKGFAGVMETFDNTRPIVAAMAVGIGRAALEEIRSVLTGAGVEISYDKPSHTQSAAAAEFLRMEADWEASYLLSLRAAWQADNNIPNSKEASMSKAKAGRMASDVTCKTVELAGTTGYSEQSLLEKWARDSKILDIFEGTQQIQQLVVARRLLGLSSSELK,not soluble
